Like-named read-outs stand apart in the source and are kept apart here.

In test [1] the target is Bovine thrombin (bovine) (UniProt P00735).
For test [2] the target is unchanged. This is another data set of the same source.

For the substance “Suc--Tyr--Glu--Pro--Tiq--Glu--Glu--Ala--Cha--D--Glu (ID#9) (peptide)”, in the test with Bovine thrombin (bovine) [1], the IC50, thrombin induced fibrin clot inhibition assay (turbidity at 405 nM) is below 25 µM.
“Suc--Tyr--Glu--Pro--Ile--Pro--Glu--Glu--Cha--Gln--NH2 (ID#11) (peptide)”: in the test with Bovine thrombin (bovine) [1], the IC50, thrombin induced fibrin clot inhibition assay (turbidity at 405 nM) is below 25 µM.
Still for that read-out and setting: the same measure for “Suc--Tyr--Glu--Pro--Ile--Pro--Glu--Glu--Cha--D--Glu (ID#21) (peptide)”: below 25 µM.
On to “Suc 3,5-diI-Tyr Glu Pro Ile Pro Glu Glu Ala Cha D-Glu (ID#4) (peptide)”, for which the IC50, thrombin induced fibrin clot inhibition assay (turbidity at 405 nM) in the test with Bovine thrombin (bovine) [2] is below 25 µM.

The values are drawn from US5279812.
